In publication PMC5428028, “Role for the ATPase inhibitory factor 1 in the environmental carcinogen-induced Warburg phenotype” (Scientific Reports, 2017):

Biological target: the molecule itself
Test: western blot (band of dimer size after electrophoresis); mitochondrial fractions of F258 cells exposed to B[a]P (50 nM or 1 µM, 48 h), lysed in RIPA buffer; 24 kDa band beside the 12 kDa monomer; gel conditions not shown

B1: ATPase inhibitory factor 1 (IF1) (natural protein, rat (endogenous in F258), UniProt Q03344 26-107, looked up)
chain: GSDSSESMDSGAGSIREAGGAFGKREKAEEDRYFREKTREQLAALKKHHEDEIDHHSKEIERLQKQIERHKKKIKYLKNSEH
notes: monomeric form printed as 12 kDa, dimer band as 24 kDa; Detected with a polyclonal rabbit anti-ATPIF1 antibody, used only as a tool; The western blot methods are in the Supplementary Information; also called ATPIF1; source: endogenous, mitochondrial fraction of F258 rat liver epithelial cells, lysed in RIPA buffer
- stoichiometry N: 2
